# From patent publication US20240018526, “DEOXYRIBONUCLEIC ACID-BASED BIOSENSOR AND ASSOCIATED METHODS” (FACible BioDiagnostics LLC, published 2024)
# Target: SARS-CoV-2 spike glycoprotein S1 (SARS-CoV-2, UniProt P0DTC2 P0DTC2:14-685)
binder,measurement,value
"N6-D2-biotin aptamer (ssDNA, 5'-biotin (5BiosG), as SEQ ID NO 96) DNA: CACGGTTCGAGCTGGTACTAAACTTCGCTAAACAACACGCAGCATTTCATCGGGTCCAAAAGGGGCTGCTCGGGATTGCGGATATGGACCCGTCAGCTTA",binding result,binds
